This test has as its target PD17(p)PS413 (24AWF). The experiment in a line: peptide-coated ELISA (plate coated with 1 µg/ml peptide 24AWF, anti-human IgG-HRP, ABTS, OD405). A general note: ELISA stands for enzyme-linked immunosorbent assay.

B1: V5-AFM-hIgG4-S228P (antibody, V domains shown)
VH: EVQLVESGGGLVQPGGSLRLSCAASGFTFSSFALNWVRQAPGKGLEWVGHIRSKTNNYVTFYAASVKGRFTVSRDDSQNTAYLQMNSLKTEDTATYYCVRRGPRDSWFGYWGQGTLVTVSS
VL: DIVMTQSPLSLPVTLGEPASISCRSSQKIVHRNANTYLEWYLQKPGQSPQLLIYTVSNRFSGVPDRFSGSGSGTDFTLKISRVEAEDLGVYYCFQGSYLPLTFGGGTKVEIKR
The molecule B1 yielded a concentration for a half-maximal effect (EC50 (read off the curve)) of 0.04 µg/mL.

What is called EC50 (read off the curve) is the concentration giving half of the maximal effect. A low value points to an effect from little substance.

For the origin of these results see patent US20230265175A1.
